Reference: article PMC8809517, “Cofactor-independent RNA editing by a synthetic S-type PPR protein”
Numbering of substitutions follows the chain as printed.

Experiments:
Test in all cases: high-throughput RNA pulldown from lysate on Ni-NTA beads; HRP: 50 mM Tris pH 8, 150 mM NaCl, 1 mM beta-mercaptoethanol, 50 ug/ml BSA, 3 ug/ml yeast RNA, 0.5% heparin; ITC and FP: Tris pH 8, 200 mM KCl, 5% glycerol; MST: 50 mM Tris pH 8, 200 mM NaCl, 1 mM DTT, BSA, heparin, 0.05% Tween 20
Settings in all cases: tags: N-terminal His-eGFP
[1] = target: T1, GFP-9S library array, motif 4 ND N98G;D124Y (synthetic construct, N98G;D124Y)
T1 chain: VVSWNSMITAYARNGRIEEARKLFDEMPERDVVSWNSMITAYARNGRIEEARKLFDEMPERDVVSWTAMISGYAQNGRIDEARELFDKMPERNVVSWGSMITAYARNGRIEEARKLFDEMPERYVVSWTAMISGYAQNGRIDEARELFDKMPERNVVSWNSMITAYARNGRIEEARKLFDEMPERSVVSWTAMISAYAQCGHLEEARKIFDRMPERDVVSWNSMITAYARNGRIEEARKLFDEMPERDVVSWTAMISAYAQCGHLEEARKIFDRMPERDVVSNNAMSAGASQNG

[2] = target: T2, GFP-9S library array, motif 4 ND N98Q;D124G (synthetic construct, N98Q;D124G)
T2 chain: T1 chain with G98Q, Y124G

[3] = target: T3, GFP-9S library array, motif 4 ND D124T (synthetic construct, D124T)
T3 chain: T1 chain with G98N, Y124T

[4] = target: T4, GFP-9S library array, motif 4 ND N98T;D124L (synthetic construct, N98T;D124L)
T4 chain: T1 chain with G98T, Y124L

[5] = target: T5, GFP-9S library array, motif 4 ND N98E;D124T (synthetic construct, N98E;D124T)
T5 chain: T1 chain with G98E, Y124T

## AUUACACGUGA (ssRNA) [Cy5-rpoA]
[1]; label: 5' Cy5
  Kd: 272 nM
[2]; label: 5' Cy5
  Kd: 154 nM
[3]; label: 5' Cy5
  Kd: 8.35 nM
[4]; label: 5' Cy5
  Kd: 120 nM
[5]; label: 5' Cy5
  Kd: 130 nM

## AUUAUACGUGA (ssRNA) [IR-rpoA-U]
[1]; label: 5' IRDye 800CW
  Kd: 574 nM
[2]; label: 5' IRDye 800CW
  Kd: 321 nM
[3]; label: 5' IRDye 800CW
  Kd: 24.6 nM
[4]; label: 5' IRDye 800CW
  Kd: 174 nM
[5]; label: 5' IRDye 800CW
  Kd: 476 nM

## AUUAAACGUGA (ssRNA) [IR-rpoA-A]
[1]; label: 5' IRDye 800CW
  Kd: 548 nM
[2]; label: 5' IRDye 800CW
  Kd: 373 nM
[3]; label: 5' IRDye 800CW
  Kd: 215 nM
[4]; label: 5' IRDye 800CW
  Kd: 169 nM
[5]; label: 5' IRDye 800CW
  Kd: 339 nM

## AUUAGACGUGA (ssRNA) [Cy5-rpoA-G]
[1]; label: 5' Cy5
  Kd: 280 nM
[2]; label: 5' Cy5
  Kd: 166 nM
[3]; label: 5' Cy5
  Kd: 291 nM
[4]; label: 5' Cy5
  Kd: 120 nM
[5]; label: 5' Cy5
  Kd: 123 nM
